The results in this text go back to patent US20190000964A1 (CREATIVE BIO PEPTIDES, published 2019).

In assay [1] the target is T1, human CCR5 receptor (hCCR5) (human, UniProt P51681 1-352).
T1 construct: whole, on cells; also called synCCR5; chemokine co-receptor CCR5
Briefly: inhibition of gp120/sCD4 complex binding to CCR5-expressing Cf2Th cells by competing peptide.

The target in assay [2] is T1, human CCR5 receptor (hCCR5). Kind of assay: inhibition of gp120CM235/sCD4 binding to GHOST CD4.CCR5 cells (FIG. 4C).
Assay [3] has the same target. Kind of assay: inhibition of gp120BaL/sCD4 binding to Cf2Th/synR5 cells (FIG. 4A).
The target is the same in assay [4]. Briefly: inhibition of gp120CM235/sCD4 binding to Cf2Th/synR5 cells (FIG. 4B).

T1 sequence (P51681 whole entry): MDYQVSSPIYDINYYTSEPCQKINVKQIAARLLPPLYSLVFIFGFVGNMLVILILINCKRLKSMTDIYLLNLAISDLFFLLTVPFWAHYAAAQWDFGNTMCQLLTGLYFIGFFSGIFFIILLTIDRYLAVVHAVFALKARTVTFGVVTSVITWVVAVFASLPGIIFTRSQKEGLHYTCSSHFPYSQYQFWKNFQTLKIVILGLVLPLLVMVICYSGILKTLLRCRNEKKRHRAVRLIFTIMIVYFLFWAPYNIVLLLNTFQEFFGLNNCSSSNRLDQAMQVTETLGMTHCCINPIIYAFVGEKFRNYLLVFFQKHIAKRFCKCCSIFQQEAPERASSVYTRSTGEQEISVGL

The term EC50 denotes the midpoint of the concentration-response curve. In assay [1], INNYT had a concentration giving a half-maximal response (EC50) of 0.06 nM.

Regarding IDNYT, the EC50 in assay [1] was determined as 1 nM.

B1: MIP-1β (ligand)
chain: APMGSDPPTACCFSYTARKLPRNFVVDYYETSSLCSQPAVVFQTKRSKQVCADPSESWVQEYVYDLELN
notes: also called MIP-β
By IC50 is commonly meant the midpoint of a concentration-inhibition curve. High values mean weaker potency, low ones greater potency. Consider B1, for which the IC50 turned out to be 0.43 nM in assay [2], 1.5 nM in assay [3] and 1.8 nM in assay [4].
